Results as given in the Immune Epitope Database (IEDB).

Key:
HLA-A*02:01 = assay: IEDB peptide-MHC binding, purified MHC/competitive/radioactivity; filed as Kd, often an IC50 or EC50 that approximates it; ≥ and ≤ were set here for values at or beyond the usual limits of such assays
HLA-A*11:01 = assay: as above
[1] = source organism: Mammarenavirus choriomeningitidis
[2] = source organism: Mammarenavirus brazilense

AQPGLLSYV
Kd (HLA-A*02:01; source organism: Mammarenavirus guanaritoense): 161 nM

FTNDSIISH
Kd (HLA-A*11:01; [1]): 38 nM

GLSQFTQTV
Kd (HLA-A*02:01; source organism: Mammarenavirus juninense): 30 nM

KCLNIMLGK
Kd (HLA-A*11:01; [2]): 678 nM

LVSFLLLAGR
Kd (HLA-A*11:01; [1]): 70 nM

LVTFLLLCGR
Kd (HLA-A*11:01; source organism: Mammarenavirus lassaense): ≥ 5000 nM

SIQKNTIFK
Kd (HLA-A*11:01; source organism: Mammarenavirus machupoense): 5.5 nM

SSIIRSLPK
Kd (HLA-A*11:01; source organism: Mammarenavirus whitewaterense): 2.5 nM

SSQRDTILK
Kd (HLA-A*11:01; [2]): 9.3 nM

STYYVHENK
Kd (HLA-A*11:01; [2]): 6 nM

TTYLGPLSCK
Kd (HLA-A*11:01; [1]): 2.8 nM
